# Source: PMC4802042, “A conserved motif in JNK/p38-specific MAPK phosphatases as a determinant for JNK1 recognition and inactivation” (Nature Communications, 2016)
# B1: MKP7-CD (F285D) (domain or fragment, human, UniProt Q9BY84 156-301, looked up)
# chain: NIGPTRILPNLYLGCQRDVLNKELMQQNGIGYVLNASNTCPKPDFIPESHFLRVPVNDSFCEKILPWLDKSVDFIEKAKASNGCVLVHCLAGISRSATIAIAYIMKRMDMSLDEAYRFVKEKRPTISPNDNFLGQLLDYEKKIKNQ
# Biological target: double-phosphorylated JNK1 (phospho-JNK1) (human, double-phosphorylated (sites not stated for this protein))
# Assay: cell-based or functional assay
binder,measurement,value
B1,"phosphatase activity for JNK1 dephosphorylation, relative to wild-type MKP7-CD (Fig. 4a)",~10 fold
